In the nanobody polyreactivity screen of Harvey et al. (2022):

Experiment: yeast display, Sf9 membrane polyspecificity reagent, FACS + sequencing; frameworks hold sequencing errors
In short: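 After 36–48 hours of galactose induction, yeast (Saccharomyces cerevisiae BJ5465) displaying a synthetic nanobody library were stained at 4 °C for 1 hour with 10% biotinylated, detergent-solubilized Sf9 membrane reagent. Streptavidin microbeads enriched the stained cells before FACS sorting into low and high (top ~1%) gates on anti-HA and streptavidin fluorescence. Each clone's polyreactivity label reflects its gate of origin.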

Sequence	polyreactivity (PSR sort gate)
QVQLEDSGGVLVQAGGSLRLSCAASGFIYRFYPMGWYRKAPGKERELVAGISSSGGSTYYADSVKGRFTISRDYAKNTVYLQMNSLKPEDTAVFYCNAKRSDQSYKTFNYWGQGTQVTVSS	low polyreactivity
QVQLEESAGGLVQAGGSLRLSCAASGIIFSGNAMGWYRQATGKERELVAAITLSGGSTYYADSVKGRFTISRDNAKNTVYLQMNSLKPEDTAVYYCNAVYDTIYSLRDIDTEYGSWGQGTQVTVSS	low polyreactivity
QVQLEESAGGLVQAGGSLRLSCAASGRIFVRNAMGWYRQAPGKERELVADITNGGSTNYADSVKGRFTISRDNAKNTVYLQMNSLKPEDTAVYYCAATYPYSWVYSGYYYWGHGTQVTVSS	low polyreactivity
QVQLEESAGGLVQAGGSLRLSCAASGYTFGRYAMGWYRQEPGKERELVAVITTGDSTYYADSVKGRFTISRDNAKNTVNLLMNSLKPEDTAVYYCAADGRLSRPFDYWGQGTQVTVSS	low polyreactivity
QVQLEESCGGLVQAGGSLRLSCAASGRTFRYYPMGWYRQAPGKERELVAAITTGSSTYYADSVKGRFTISRDNANNTVYLQMNSLKPEDTAVFYCNVFQGTRYGYWGQGTQVTVSS	low polyreactivity
QVQLEESGAGLVQAGGSLRLSCAASGSIFVRNAMAWYRHAPGKERELVAVITRSAGRTYYADSVKGRFTISRDNAKNTVYLQMNSLKPEDTAVYYCAASPSTPNKYGSWGQGTQVTVSS	high polyreactivity
QVQLEESGGCIVQAGGSHRLSCAASGRTFTLNAMGWYRQAPGKEREFVAAISNSGVRTYYADSVKGRFTISRDNAKNTVFLQMNSLKPEDTGVYYCARTYQVGDSIDDYWGQGTQVNVSS	low polyreactivity
QVQLEESGGCLVQAGGSLRLRCAASGRIVALNAMGWYRQAPGKERELVATIRCRGGATYYADSVKGRFTISRDNAKNTVYLQMNSLKPEDNAVYYCDAFTGNRRTYDYWGQGTQVTVSS	high polyreactivity
QVQLEESGGCLVQAGGSLRLSCAASGITFYGNVMGWYRQAPGKERELVAAISWSGGRTYYADSVKGRFTISRDNAKNTVSVQMNSLKPEDTAVDFCAAEGTTNRGVYASYDYWGQGTQVTVSS	low polyreactivity
QVQLEESGGGIVQAGGSLRLSCAASGRIFPYYAMGWYRQAPGKERALVAVISYSSGITYADSVKGRFTISRDNAKNTVYLQMNSLKPEDTAVYYCAADKWAFGATQYDYWGKGTQVTVSS	low polyreactivity
QVQLEESGGGLFQAGGSLRLSCAASGRTFRLYDMGWYRQAPGKERELVAAISKSGGSTYYADSVKGRFTISRDYAKNPVYVQMNSLKPEDTAVYYCAAGTRVCEYDYWGQGTQVTVSS	high polyreactivity
QVQLEESGGGLFQAGGSLRLSCAASGSTITRYAMGCYRQAPGKEREIVAVISRSGGSTYYADSVKGLFTISRDNAKNTVYLQINSLKPEDTAVYYCAAKYYGGRRSPYSYGYWGQGTQVTVSS	high polyreactivity
QVQLEESGGGLLQAGGSLRLSCAATGSTFVTYAMGWYRQAPGKERELVAAISSGGGNTYYADSVKGRFTISRDNAMNSVYLQMHSLKPEDTAVYLCAADNPRSEYDYWGQGTQVTVSA	high polyreactivity
QVQLEESGGGLLQAGGSLRLTCAASGFTFYYYAMGWYRLATGKERYLVAAISGGGGSTYYADSVKGRFTISRDNAKNTVYLPMNSMKPEDTAVYYCAAVGSWRYNYDYDYWGQGSQVTVSS	high polyreactivity
QVQLEESGGGLVHAGGSLRLICAASGSTFSTYAMRWYRQAPGKERELVARITRGGSTNYADSVKGRFTISRDNAMNTVYLQMNCLKPDDTAVYYFSAGIRSGRKYDYWGQGTQVTVSS	low polyreactivity
QVQLEESGGGLVKAGGSLRLSSAASGITIGIYLIGWYRQAPGTESEFVATISRSDDNTYYADSVMGRFTISRDNAKNTVYLQMNSLKPEDSAVYYCPADGVISAWYSSRDDYWGKGTQVTVSS	low polyreactivity

Sequence	polyreactivity (PSR sort gate)
QVQLEESGGGLVQAAGRLRVSCAASGYIYGYAMGWYKQAPAKEMELVAAITRGGGRTYYADSVKGRFTISRDNAKNTVYFQMHSLKPVDTAVYYCAVAANRGKGFYEYYHWGQGTQVTVSS	high polyreactivity
QVQLEESGGGLVQAAGSLRLRCAASGSTLTFNAMGWYRHAPGKERELVAAISWSDTDTYYADSVKGRFTISRDNAKNTVYLQMNSLKPEDTAVYYCASTLSAYEMDYWGQGTQVTVSS	low polyreactivity
QVQLEESGGGLVQAGGILRLSCAASGSTFVNNAMGWYRQAPGKERELVAAITSGSRTKYADSVKGRFTMSLDNAKYTVYFQMNSLQPEDTAVYYWNTMRVGWGQGTQVTVSS	high polyreactivity
QVQLEESGGGLVQAGGRLRLSCAASGRIFAVNAMGWYRQAPGKERELVASITSRGGSTYYADSVYGRFTISRDNAKNTVYLQMPSLKPEDTAVDYCASPYYSLTTNDYDYSGQGTQVTVSS	high polyreactivity
QVQLEESGGGLVQAGGRLRLSCAASGSNTRTYAMGWYRQAHGKERELVAAISSSVCRTYYADSVKGRFTISRDNEKNTVYLQMNSLKPEDTAVYYCNSRTYSYRGYNYWGQGTQVTVSS	high polyreactivity
QVQLEESGGGLVQAGGRLRLSCAASGSTFRNYAMGWNITAAGKERELVAAISTNGGRTFYADSVKGRFTISRDNAKNTVYLQMNSLKPEDNAVYYCAAEYGLYAPGYYYWGQGTQVTVSS	low polyreactivity
QVQLEESGGGLVQAGGRLRLSCAASGSTYSEYAMGWSRKAPGKQRELVAAINWSGGSTYYADSVKGRFTISRDNAKNTVYLQMNSLKPEDTAVYYCNKVFRHHWYPAYNSWGQGTQVTVSS	low polyreactivity
QVQLEESGGGLVQAGGSHRLSCAASGSIIYPYTMGWYRQAPRKERELVAAISGGGRTYYADSVKGRFTISRDNAKNTVYLQMNSLIPEDTAVYYCAARRGYPSGYEYWGQGTQVSVSS	high polyreactivity
QVQLEESGGGLVQAGGSIRLSCAASGFIFYYNAMGWYRQAPGKERELVASIRSGGSTNYADSVKGRFTISRDNAKNTVYLQMNSLKPEDTAVYYCAADISRWSHRSKEMYYWGQGTQVTVSS	low polyreactivity
QVQLEESGGGLVQAGGSLPLSCAASGVIFGYYAMGWYIQAPGKERELVAAISKSGGSTYYADSVKARFTISRDNAKNTVYVQMNSLIPEDTAVYDCNADPRTASDQLEFDYWGQGTQVNVSS	low polyreactivity
QVQLEESGGGLVQAGGSLRIRCAASGSTFVGYAMGWYRQAPGKERELVAAITSSGGRTYYADSVKGRFTISRDNAKNTVYLQMNSLKPEDTAVYYCAAPRARIGGSYDYWGQGTQVTGSS	high polyreactivity
QVQLEESGGGLVQAGGSLRLICAASGRIFDYYTMGWYRQAPGKERELVAAISSSGGSTYYADSVKGRFTISRDNAKNTVYLQMNSLKPEDPAVYYCNASVINEMNYWGQGTQVTVSS	low polyreactivity
QVQLEESGGGLVQAGGSLRLICAASGRIFWLNAMGWYRQAPGKEREFVASITYGSDSTYYADSVKGRFTISRDNAKNTVYLQMNSLKPEDTAVYYCNREGWHYGPYVYWGQGTQVTVSS	low polyreactivity
QVQLEESGGGLVQAGGSLRLICAASGRNFGYYPMGWYRQAPGKERELVAAISGSGGTTYYADSVKGRFTISRDIAKNTVYLQMISLKPEDTAVYYCNAGFGYYWHRGFFQYDYWGQGTQVTVSS	high polyreactivity
QVQLEESGGGLVQAGGSLRLICAASGSIFYYKYAMGGYRQAPGKERELVAAITSTGGTTYYADSVKGRFTISRDNAKNTVYLQMNSLKPEDTAVYYCAALAPYIGGVDYDYWGQGTQVTVSS	low polyreactivity
QVQLEESGGGLVQAGGSLRLICAAYGIIFYIYTMGWYRQEPVKERELVAAINPGGSRYYADSVKGRFTISRDNAKNTVYLQMNSLKPEDTAVYYCNKLSYGRSGYWGQGTEVTVSS	high polyreactivity
